The record followed here is CN116262786A (NANJING RONGJIEKANG BIOTECHNOLOGY CO LTD, dated 2023).

The target in test [1] is T1, 人源重组FOLR1蛋白 (人源FOLR1重组胞外结构域蛋白) (human, UniProt P15328 25-233).
T1 construct: range 25-233; a tag is not mentioned; also called FOLR1重组蛋白; 人FOLR1
The test can be described thus: ELISA, coated FOLR1 1 μg/mL, purified prokaryotic VHH titrated from 2 μg/mL, anti-HA-HRP. Background: ELISA stands for enzyme-linked immunosorbent assay.

For test [2], the target named is T1, 人源重组FOLR1蛋白 (人源FOLR1重组胞外结构域蛋白). The test can be described thus: ELISA, coated FOLR1 of each species 1 μg/mL, VHH-hFc titrated from 2 μg/mL, goat anti-human IgG-HRP.
Another test deals with T2, 小鼠FOLR1 (小鼠 (mouse), UniProt P35846 25-232, limits assumed).
T2 construct: also called mouse FOLR1
Described as above.

Test [3] deals with T1, 人源重组FOLR1蛋白 (人源FOLR1重组胞外结构域蛋白). Nature of the test: ELISA of crude periplasmic extract on coated FOLR1 recombinant protein, anti-HA-HRP; positive = OD more than 5 times control.

T2 sequence (P35846 25-232 limits assumed): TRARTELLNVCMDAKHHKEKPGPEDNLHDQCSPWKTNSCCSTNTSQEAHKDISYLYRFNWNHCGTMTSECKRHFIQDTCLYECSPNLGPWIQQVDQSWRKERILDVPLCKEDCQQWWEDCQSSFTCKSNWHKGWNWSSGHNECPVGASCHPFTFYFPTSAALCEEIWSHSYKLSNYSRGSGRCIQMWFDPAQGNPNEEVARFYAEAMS
T1 sequence (P15328 25-233 limits assumed): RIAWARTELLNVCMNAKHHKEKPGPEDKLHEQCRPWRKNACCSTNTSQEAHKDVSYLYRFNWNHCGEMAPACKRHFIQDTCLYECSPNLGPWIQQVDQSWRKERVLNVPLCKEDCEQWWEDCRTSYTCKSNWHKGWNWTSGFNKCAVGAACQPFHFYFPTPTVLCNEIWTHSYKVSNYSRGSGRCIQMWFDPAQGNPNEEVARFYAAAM

B1: 单域抗体4B10 (VHH)
VHH: QVQLVESGGGLVQAGGSLRLSCTASGFTFDDYAMGWFRQAPGKEREGVSCISWNGGSTFYADSVKGRFTIVRDNAKNTVYLEMNSLKPEDTAMYYCAALAYCSGGHWSPGDLSGGYWGQGTQVTVSS
notes: Prokaryotic (E. coli) VHH from pMECS-VHH; also called VHH14; not shown: tags from vector pMECS (detected with anti-HA, purified on nickel column)
As for B1, the binding result in test [1] is reported as “binds”.

B2: 4B10-hFC1 (Fc fusion, human, not shown: a dimerising Fc or GST; small tags and cut ends)
chain: QVQLVESGGGLVQAGGSLRLSCTASGFTFDDYAMGWFRQAPGKEREGVSCISWNGGSTFYADSVKGRFTIVRDNAKNTVYLEMNSLKPEDTAMYYCAALAYCSGGHWSPGDLSGGYWGQGTQVTVSS
notes: domain: Fc区段 (铰链区 Hinge, CH2和CH3区); VHH cloned into vector RJK-V4-hFC; also called VHH-hFc 4B10; 单域抗体4B10的Fc融合抗体
Regarding B2, the binding result (in test [2]; in the test with 小鼠FOLR1) was “binds” throughout.

B3: 单域抗体1D11 (VHH)
VHH: QVQLVESGGGSVQAGGSLRLSCAASGDTYSSACMDWFRQAPGKEREGVAGISSGGSTYYADSVKGRFTISRDNAKNTLYLQMNSLKPEDTAMYYCAARRVGRIPCRTMLPGLQDYWGQGTQVTVSS
notes: Prokaryotic (E. coli) VHH from pMECS-VHH; also called VHH2; not shown: tags from vector pMECS (detected with anti-HA, purified on nickel column)
As for B3, the binding result in test [3] is “binds”.

B4: 1D11-hFC1 (Fc fusion, human, not shown: a dimerising Fc or GST; small tags and cut ends)
chain: QVQLVESGGGSVQAGGSLRLSCAASGDTYSSACMDWFRQAPGKEREGVAGISSGGSTYYADSVKGRFTISRDNAKNTLYLQMNSLKPEDTAMYYCAARRVGRIPCRTMLPGLQDYWGQGTQVTVSS
notes: domain: Fc区段 (铰链区 Hinge, CH2和CH3区); VHH cloned into vector RJK-V4-hFC; also called VHH-hFc 1D11; 单域抗体1D11的Fc融合抗体
Turning to B4, the binding result (in test [2]; with 小鼠FOLR1) was “binds” throughout.

B5: 单域抗体2D8 (VHH)
VHH: QVQLVESGGGSVQAGGSLRLSCAASDYTYRRYCMGWFRQAPGKEREKVAAIYLGDGTTYYTDSVKGRFTISQENAKNTIYLQMNNLKPEDTAMYYCAADRSGCSVTWSYSAFEDWGQGTQVTVSS
notes: Prokaryotic (E. coli) VHH from pMECS-VHH; also called VHH8; not shown: tags from vector pMECS (detected with anti-HA, purified on nickel column)
On to B5, for which the binding result in test [1] is “binds”.

B6: 2D8-hFC1 (Fc fusion, human, not shown: a dimerising Fc or GST; small tags and cut ends)
chain: QVQLVESGGGSVQAGGSLRLSCAASDYTYRRYCMGWFRQAPGKEREKVAAIYLGDGTTYYTDSVKGRFTISQENAKNTIYLQMNNLKPEDTAMYYCAADRSGCSVTWSYSAFEDWGQGTQVTVSS
notes: domain: Fc区段 (铰链区 Hinge, CH2和CH3区); VHH cloned into vector RJK-V4-hFC; also called VHH-hFc 2D8; 单域抗体2D8的Fc融合抗体
On to B6, for which the binding result (in test [2]; with 小鼠FOLR1) was “binds” each time.

B7: 单域抗体3H11 (VHH)
VHH: QVQLVESGGGSVQTGGSPRLSCAVSGHTYSRLSMGWFRQAPGKEREGVAGIYTGGPSGPMTYYADSVKGRFTISQDNAQRTVYLQMNSLKPEDTAMYYCAATPQFLIGSGLLRPDKYNSWGQGTQVTVSS
notes: Prokaryotic (E. coli) VHH from pMECS-VHH; also called VHH15; not shown: tags from vector pMECS (detected with anti-HA, purified on nickel column)
B7: in test [1], the binding result is “binds”.

B8: 3H11-hFC1 (Fc fusion, human, not shown: a dimerising Fc or GST; small tags and cut ends)
chain: QVQLVESGGGSVQTGGSPRLSCAVSGHTYSRLSMGWFRQAPGKEREGVAGIYTGGPSGPMTYYADSVKGRFTISQDNAQRTVYLQMNSLKPEDTAMYYCAATPQFLIGSGLLRPDKYNSWGQGTQVTVSS
notes: domain: Fc区段 (铰链区 Hinge, CH2和CH3区); VHH cloned into vector RJK-V4-hFC; also called VHH-hFc 3H11; 单域抗体3H11的Fc融合抗体
For B8, the binding result (in test [2]; in the test with 小鼠FOLR1) was “binds” in each case.

B9: 单域抗体2E5 (VHH)
VHH: QVQLVESGGGSVQAGGSLRLSCAASGYPYHRVSMGWFRQAPGKEREGVAGIYTGGLYTGGSMTYYADSVKGRFTISQDNARNTVYLQMNSLKPEDTAMYYCAATPQFLIGSGLLRPDKYNSWGQGTQVTVSS
notes: Prokaryotic (E. coli) VHH from pMECS-VHH; also called VHH11; not shown: tags from vector pMECS (detected with anti-HA, purified on nickel column)
Consider B9, for which the binding result in test [1] is on record as “binds”.

B10: 2E5-hFC1 (Fc fusion, human, not shown: a dimerising Fc or GST; small tags and cut ends)
chain: QVQLVESGGGSVQAGGSLRLSCAASGYPYHRVSMGWFRQAPGKEREGVAGIYTGGLYTGGSMTYYADSVKGRFTISQDNARNTVYLQMNSLKPEDTAMYYCAATPQFLIGSGLLRPDKYNSWGQGTQVTVSS
notes: domain: Fc区段 (铰链区 Hinge, CH2和CH3区); VHH cloned into vector RJK-V4-hFC; also called VHH-hFc 2E5; 单域抗体2E5的Fc融合抗体
In the case of B10, the binding result (in test [2]; with 小鼠FOLR1) was “binds” each time.

B11: 单域抗体3B3 (VHH)
VHH: QVQLVESGGGSVQAGGSLRLSCAASGYTYRRLSMGWFRQAPGKEREAVGGIYTGESMTYYADSVRGRFTISQDNAQNTVYLQMNSLKPEDTATYYCAATPQFLIGSGLLRPDKYDSWGQGTQVTVSS
notes: Prokaryotic (E. coli) VHH from pMECS-VHH; also called VHH4; not shown: tags from vector pMECS (detected with anti-HA, purified on nickel column)
Take B11: the binding result in test [1] is “binds”.

B12: 3B3-hFC1 (Fc fusion, human, not shown: a dimerising Fc or GST; small tags and cut ends)
chain: QVQLVESGGGSVQAGGSLRLSCAASGYTYRRLSMGWFRQAPGKEREAVGGIYTGESMTYYADSVRGRFTISQDNAQNTVYLQMNSLKPEDTATYYCAATPQFLIGSGLLRPDKYDSWGQGTQVTVSS
notes: domain: Fc区段 (铰链区 Hinge, CH2和CH3区); VHH cloned into vector RJK-V4-hFC; also called VHH-hFc 3B3; 单域抗体3B3的Fc融合抗体
Turning to B12, the binding result (in test [2]; in the test with 小鼠FOLR1) was “binds” each time.

B13: 单域抗体4E11 (VHH)
VHH: QVQLVESGGGSVQAGGSLRLSCAVSGYTYSSNSMGWFRQAPGKEREGVAAIYTGGGSTYYADSVKGRFTISQDNAKNTVYLQMNSLKPEDTAMYYCAAGGPTWYDGSWSRGDEYTYWGQGTQVTVSS
notes: Prokaryotic (E. coli) VHH from pMECS-VHH; also called VHH18; not shown: tags from vector pMECS (detected with anti-HA, purified on nickel column)
B13: in test [1], the binding result is “binds”.

B14: 4E11-hFC1 (Fc fusion, human, not shown: a dimerising Fc or GST; small tags and cut ends)
chain: QVQLVESGGGSVQAGGSLRLSCAVSGYTYSSNSMGWFRQAPGKEREGVAAIYTGGGSTYYADSVKGRFTISQDNAKNTVYLQMNSLKPEDTAMYYCAAGGPTWYDGSWSRGDEYTYWGQGTQVTVSS
notes: domain: Fc区段 (铰链区 Hinge, CH2和CH3区); VHH cloned into vector RJK-V4-hFC; also called VHH-hFc 4E11; 单域抗体4E11的Fc融合抗体
B14: the binding result (in test [2]; with 小鼠FOLR1) was “binds” in each case.
